{
  "source": "paper PMC5796892",
  "key": {"[1]": {"biological_target": "MBL-associated serine protease 2 (MASP2), serum-derived (human (endogenous in normal human serum))"}, "[2]": {"biological_target": "MBL-associated serine protease 2 (MASP2), serum-derived (human (endogenous in normal human serum))", "remark": "listed apart in the source"}, "[3]": {"biological_target": "MBL-associated serine protease 2 (MASP2), serum-derived (human (endogenous in normal human serum))", "remark": "listed apart in the source"}, "[4]": {"biological_target": "MBL-associated serine protease 2 (MASP2), serum-derived (human (endogenous in normal human serum))", "remark": "listed apart in the source"}, "[5]": {"biological_target": "neutrophil elastase (NE) from human leukocytes (human) (UniProt P08246)", "sequence (P08246 30-267)": "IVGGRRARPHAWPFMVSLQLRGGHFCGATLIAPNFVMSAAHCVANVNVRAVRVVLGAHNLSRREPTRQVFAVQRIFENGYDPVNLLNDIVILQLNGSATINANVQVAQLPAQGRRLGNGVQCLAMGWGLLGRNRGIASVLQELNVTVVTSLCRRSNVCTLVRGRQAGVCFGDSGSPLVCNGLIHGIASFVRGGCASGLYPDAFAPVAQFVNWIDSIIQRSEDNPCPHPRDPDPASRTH"}, "[6]": {"biological_target": "serum-derived MBL-associated serine proteases (MASPs) (human (endogenous in normal human serum))", "experiment": "ELISA; normal human serum diluted 1:10 in veronal buffer saline bound to mannan-coated plate (37°C, 2 h), washed; rLdISP1/rLdISP2 0-50 µM added, 37°C, 2 h; bound ISP detected with anti-ISP1 or anti-ISP2 antibody"}, "[7]": {"biological_target": "serum-derived MBL-associated serine proteases (MASPs) (human (endogenous in normal human serum))", "experiment": "ELISA; normal human serum diluted 1:50 in veronal buffer saline bound to mannan-coated plate (37°C, 2 h), washed; rLdISP1/rLdISP2 0-50 µM added, 37°C, 2 h; bound ISP detected with anti-ISP1 or anti-ISP2 antibody"}, "[8]": {"biological_target": "serum-derived MBL-associated serine proteases (MASPs) (human (endogenous in normal human serum))", "experiment": "ELISA; normal human serum diluted 1:100 in veronal buffer saline bound to mannan-coated plate (37°C, 2 h), washed; rLdISP1/rLdISP2 0-50 µM added, 37°C, 2 h; bound ISP detected with anti-ISP1 or anti-ISP2 antibody"}, "[9]": {"biological_target": "C1 complex (C1qr2s2) (human) (UniProt P02745)", "experiment": "ELISA; C1 complex at 25 µg/ml bound to human IgM-coated plate (37°C, 2 h); rLdISP1/rLdISP2 0-50 µM added, 37°C, 2 h; bound ISP detected with anti-ISP1 or anti-ISP2 antibody; Kd taken as the free ligand at half saturation"}, "[10]": {"biological_target": "C1 complex (C1qr2s2) (human) (UniProt P02745)", "experiment": "ELISA; C1 complex at 50 µg/ml bound to human IgM-coated plate (37°C, 2 h); rLdISP1/rLdISP2 0-50 µM added, 37°C, 2 h; bound ISP detected with anti-ISP1 or anti-ISP2 antibody; Kd taken as the free ligand at half saturation"}, "[11]": {"biological_target": "C1 complex (C1qr2s2) (human) (UniProt P02745)", "experiment": "ELISA; C1 complex at 100 µg/ml bound to human IgM-coated plate (37°C, 2 h); rLdISP1/rLdISP2 0-50 µM added, 37°C, 2 h; bound ISP detected with anti-ISP1 or anti-ISP2 antibody; Kd taken as the free ligand at half saturation"}, "[12]": {"biological_target": "C1 complex (C1qr2s2) (human) (UniProt P02745)", "experiment": "ELISA; C1 complex at 12.5 µg/ml bound to human IgM-coated plate (37°C, 2 h); rLdISP1/rLdISP2 0-50 µM added, 37°C, 2 h; bound ISP detected with anti-ISP1 or anti-ISP2 antibody; Kd taken as the free ligand at half saturation"}, "[13]": {"biological_target": "C1 complex (C1qr2s2) (human) (UniProt P02745)", "experiment": "ELISA; C1 complex at 6.25 µg/ml bound to human IgM-coated plate (37°C, 2 h); rLdISP1/rLdISP2 0-50 µM added, 37°C, 2 h; bound ISP detected with anti-ISP1 or anti-ISP2 antibody; Kd taken as the free ligand at half saturation"}, "[14]": {"biological_target": "C1 complex (C1qr2s2) (human) (UniProt P02745)", "experiment": "ELISA; C1 complex at 100 µg/ml bound to human IgM-coated plate (37°C, 2 h); rLdISP1/rLdISP2 0-50 µM added, 37°C, 2 h; bound ISP detected with anti-ISP1 or anti-ISP2 antibody; Kd taken as the free ligand at half saturation", "remark": "listed apart in the source"}},
  "note": "pKd: −log10 of the molar value.",
  "data": [
    {"substance": "recombinant L. donovani inhibitor of serine peptidases 2 (natural protein)", "values": [
      {"measurement": "enzyme activity of serum-derived MASP2 (substrate Z-L-Lys-SBzl with DTNB), reduction against untreated serum at 5, 10 and 50 µM rLdISP2 (~30, ~44, ~60%)", "setting": "[1]", "result": 60, "unit": "%"},
      {"measurement": "C4b formation (C4 cleavage by serum-derived MASPs on mannan plate, sandwich ELISA), fold decrease against control at 10 and 50 µM rLdISP2 (~2.1, ~2.9-fold)", "setting": "[2]", "result": 2.9, "unit": "fold"},
      {"measurement": "C3 convertase (C3c) formation by all complement pathways in human serum with promastigotes, fold reduction at 10 and 50 µM rLdISP2 (~1.5, ~2.5-fold)", "setting": "[3]", "result": 2.5, "unit": "fold"},
      {"measurement": "C3 convertase (C3c) formation by the lectin pathway (lectin pathway-specific serum), fold reduction at 10 and 50 µM rLdISP2 (~2, ~4-fold)", "setting": "[3]", "result": 4, "unit": "fold"},
      {"measurement": "C5 convertase (C5c) formation by all three pathways, fold reduction at 10 and 50 µM rLdISP2 (~1.5, ~2.9-fold)", "setting": "[3]", "result": 2.9, "unit": "fold"},
      {"measurement": "C5 convertase (C5c) formation by the lectin pathway, fold reduction at 10 and 50 µM rLdISP2 (~1.4, ~3.2-fold)", "setting": "[3]", "result": 3.2, "unit": "fold"},
      {"measurement": "MAC (C5b-9) formation on promastigotes via the lectin pathway, fold decrease against active LPSS at 10 and 50 µM rLdISP2 (~1.5, ~2.3-fold)", "setting": "[4]", "result": 2.3, "unit": "fold"},
      {"measurement": "complement-mediated lysis of promastigotes via the lectin pathway, fold reduction at 10 and 50 µM rLdISP2 (~1.8, ~2.5-fold)", "setting": "[4]", "result": 2.5, "unit": "fold"},
      {"measurement": "C5aR expression (western blot) in macrophages treated with NE pre-incubated with 10 µM rLdISP2, fold increase against control", "setting": "[5]", "result": 2.5, "unit": "fold"},
      {"measurement": "enzyme activity of NE (50 nM; substrate N-methoxysuccinyl-Ala-Ala-Pro-Val-AMC), reduction at 0.1, 1 and 10 µM rLdISP2 (~49, ~60, ~82%)", "setting": "[5]", "result": 82, "unit": "%"},
      {"measurement": "Ka", "setting": "[6]", "result": 830000, "unit": "M⁻¹"},
      {"measurement": "pKd", "setting": "[6]", "result": 5.92},
      {"measurement": "Ka", "setting": "[7]", "result": 520000, "unit": "M⁻¹"},
      {"measurement": "pKd", "setting": "[7]", "result": 5.72},
      {"measurement": "Ka", "setting": "[8]", "result": 330000, "unit": "M⁻¹"},
      {"measurement": "pKd", "setting": "[8]", "result": 5.52},
      {"measurement": "Ka", "setting": "[9]", "result": 350000, "unit": "M⁻¹"},
      {"measurement": "pKd", "setting": "[9]", "result": 5.52},
      {"measurement": "Ka", "setting": "[10]", "result": 500000, "unit": "M⁻¹"},
      {"measurement": "pKd", "setting": "[10]", "result": 5.70},
      {"measurement": "Ka", "setting": "[11]", "result": 760000, "unit": "M⁻¹"},
      {"measurement": "pKd", "setting": "[11]", "result": 5.89},
      {"measurement": "Ka", "setting": "[12]", "result": 310000, "unit": "M⁻¹"},
      {"measurement": "pKd", "setting": "[12]", "result": 5.49},
      {"measurement": "Ka", "setting": "[13]", "result": 280000, "unit": "M⁻¹"},
      {"measurement": "pKd", "setting": "[13]", "result": 5.46},
      {"measurement": "pKd", "setting": "[14]", "result": 5.80}
    ]},
    {"substance": "recombinant Leishmania donovani inhibitor of serine peptidases 1 (natural protein)", "values": [
      {"measurement": "enzyme activity of NE (50 nM; substrate N-methoxysuccinyl-Ala-Ala-Pro-Val-AMC), inhibition at 10 µM rLdISP1", "setting": "[5]", "result": 27, "unit": "%"},
      {"measurement": "Ka", "setting": "[6]", "result": 710000, "unit": "M⁻¹"},
      {"measurement": "pKd", "setting": "[6]", "result": 5.85},
      {"measurement": "Ka", "setting": "[7]", "result": 450000, "unit": "M⁻¹"},
      {"measurement": "pKd", "setting": "[7]", "result": 5.66},
      {"measurement": "Ka", "setting": "[8]", "result": 310000, "unit": "M⁻¹"},
      {"measurement": "pKd", "setting": "[8]", "result": 5.49}
    ]}
  ]
}
